Results taken from PMC3882317 (Cell reports, 2013).

Legend:
[1] = biological target: T1, Flag-tagged MePCE (UniProt Q7L2J0 1-689); assay: pull-down
T1 sequence (looked up): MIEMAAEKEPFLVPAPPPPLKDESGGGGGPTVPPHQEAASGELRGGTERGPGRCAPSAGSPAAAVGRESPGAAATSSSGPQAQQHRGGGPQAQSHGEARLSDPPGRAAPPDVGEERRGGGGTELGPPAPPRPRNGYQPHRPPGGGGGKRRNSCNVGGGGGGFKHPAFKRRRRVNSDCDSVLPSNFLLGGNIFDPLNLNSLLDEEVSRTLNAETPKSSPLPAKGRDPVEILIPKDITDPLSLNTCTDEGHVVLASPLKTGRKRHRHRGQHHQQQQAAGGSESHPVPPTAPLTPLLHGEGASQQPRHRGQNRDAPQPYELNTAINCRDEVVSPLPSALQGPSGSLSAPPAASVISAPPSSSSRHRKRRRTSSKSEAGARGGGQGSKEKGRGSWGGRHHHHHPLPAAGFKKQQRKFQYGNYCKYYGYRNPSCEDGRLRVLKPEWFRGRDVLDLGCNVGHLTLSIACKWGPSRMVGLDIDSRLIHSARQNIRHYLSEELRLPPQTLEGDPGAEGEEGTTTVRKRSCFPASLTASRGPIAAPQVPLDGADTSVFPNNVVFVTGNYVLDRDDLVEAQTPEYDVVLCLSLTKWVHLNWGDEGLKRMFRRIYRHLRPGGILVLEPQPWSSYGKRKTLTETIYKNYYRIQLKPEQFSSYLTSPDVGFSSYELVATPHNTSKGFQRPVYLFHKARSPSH

[2] = biological target: T2, Flag-tagged Larp7 (UniProt Q4G0J3 1-582); assay: pull-down
T2 sequence (looked up): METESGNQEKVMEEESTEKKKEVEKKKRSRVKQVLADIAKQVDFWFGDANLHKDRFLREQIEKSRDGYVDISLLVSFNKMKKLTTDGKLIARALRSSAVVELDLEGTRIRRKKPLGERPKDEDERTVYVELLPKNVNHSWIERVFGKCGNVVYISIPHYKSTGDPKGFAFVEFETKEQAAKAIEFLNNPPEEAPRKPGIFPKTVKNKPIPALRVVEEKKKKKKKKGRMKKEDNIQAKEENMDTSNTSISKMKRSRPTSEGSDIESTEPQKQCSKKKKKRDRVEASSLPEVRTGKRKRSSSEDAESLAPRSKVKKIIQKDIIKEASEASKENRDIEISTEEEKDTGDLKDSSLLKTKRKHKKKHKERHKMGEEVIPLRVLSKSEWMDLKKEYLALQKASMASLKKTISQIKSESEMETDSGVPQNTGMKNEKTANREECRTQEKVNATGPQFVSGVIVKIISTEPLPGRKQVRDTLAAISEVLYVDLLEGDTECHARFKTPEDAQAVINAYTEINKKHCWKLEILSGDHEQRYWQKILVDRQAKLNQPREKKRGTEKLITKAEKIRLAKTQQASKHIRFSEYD

B1: Strep-tagged PPM1G (enzyme, UniProt O15355 1-546, looked up)
chain: MGAYLSQPNTVKCSGDGVGAPRLPLPYGFSAMQGWRVSMEDAHNCIPELDSETAMFSVYDGHGGEEVALYCAKYLPDIIKDQKAYKEGKLQKALEDAFLAIDAKLTTEEVIKELAQIAGRPTEDEDEKEKVADEDDVDNEEAALLHEEATMTIEELLTRYGQNCHKGPPHSKSGGGTGEEPGSQGLNGEAGPEDSTRETPSQENGPTAKAYTGFSSNSERGTEAGQVGEPGIPTGEAGPSCSSASDKLPRVAKSKFFEDSEDESDEAEEEEEDSEECSEEEDGYSSEEAENEEDEDDTEEAEEDDEEEEEEMMVPGMEGKEEPGSDSGTTAVVALIRGKQLIVANAGDSRCVVSEAGKALDMSYDHKPEDEVELARIKNAGGKVTMDGRVNGGLNLSRAIGDHFYKRNKNLPPEEQMISALPDIKVLTLTDDHEFMVIACDGIWNVMSSQEVVDFIQSKISQRDENGELRLLSSIVEELLDQCLAPDTSGDGTGCDNMTCIIICFKPRNTAELQPESGKRKLEEVLSTEGAEENGNSDKKKKAKRD
B1: binds [1]; binds [2].
